Assay results published in patent US20260103629A1 (YALE UNIVERSITY, published 2026).

Target: T1, asialofetuin (Sigma-Aldrich A4781), coated on glass (UniProt P12763 19-359, an extensively glycosylated protein (so in the source))
T1 construct: also called asialofetuin-coated surface
T1 sequence: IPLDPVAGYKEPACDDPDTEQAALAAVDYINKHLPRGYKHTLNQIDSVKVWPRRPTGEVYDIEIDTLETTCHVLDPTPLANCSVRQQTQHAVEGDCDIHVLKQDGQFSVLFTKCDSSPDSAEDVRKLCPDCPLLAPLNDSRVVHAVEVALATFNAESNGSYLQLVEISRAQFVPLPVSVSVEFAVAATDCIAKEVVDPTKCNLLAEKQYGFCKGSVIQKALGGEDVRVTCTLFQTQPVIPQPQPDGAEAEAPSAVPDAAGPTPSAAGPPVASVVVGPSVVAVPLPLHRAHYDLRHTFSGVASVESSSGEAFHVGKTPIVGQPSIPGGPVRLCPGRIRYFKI
Test: in situ anti-FLAG immunostaining of biofilms grown on asialofetuin-coated glass

B1: Bap1 (Biofilm-Associated Protein 1 of V. cholerae, wild type), tagged with 3xFLAG at the C-terminus (other)
chain: SSSSDIQTKLKWSWSTSVFHPESNQVMAAPIVVQLNDDNGDGKIDEKDVADIIVVTFEGNKYANGGYIRALSGVDGSELWSYSNGGVIADARYAPAAADLDGDGLIEIVSTSALTPYINILDHQGNIKKQLLKSASGWRSVGDIALADINGDGNIEILAADGVYSYESGLLFSHDWAPSSIAFDSNGDGQREVFANGTLYQNNGAYLWQYQANDTVWFSSVANLDGDDKPELVVSVPASLSTPENSEIAVLEHDGSVKWRVNNLSNPGGSVQAVSSFLGKPSSSATTVDAQSAVYGYTDWAHQQRVLAENHQLAIRSGAVVDAIGANSQNMIGGSGGSLSTIDTSKVRAIDVTYGKNKYTWKYGVLEMSFTLDNGAKVTVGSKDSAFTYLGLEWKTKTVPYLGVEWRTKTVSYWFFGWHTKQVAYLAPVWKEKTIPYAVPVTLSKSTTVRYDIPQGSQLLGMNVWSKEKHLFKHKQQVNAVQFLVGKVTADQSHMGIVYAGYYAVDMYDAQGNKVWSVANDDLNSGKIGVSAYDFTGDGIDEVLVQDRLRMRILDGQTGRVMGIIANSSGTLWEYPVVADLEGNNNASLIMVANDYDRESQVNHGVFVYESANPSKPWRNATRIWNQYAFNFSDINANGTIPTNAQPSWLTHNSFRSATIRVPLK
notes: also called VC1888; WT Bap1; not shown: C-terminal 3xFLAG tag
Q: Does B1 bind?
A: no binding
